US20040248211A1, “ICAM-related protein” (priority 1992, published 2004)

B1: ICR-1.1: anti-ICAM-R monoclonal antibody, IgG2a, domain 1, ATCC HB 11053 (antibody, V domains shown)
VH: QVQLQQSGAELAKPGASVKMSCKASGYTFTVYWMHWVKQRPGQGLEWIGYINPNTDYTEYNQRFQDKATLTADKSSSTAYMQLSSLTSEDSAVYYCARWGGNSYGLDYWGQGTSVTVSS
VL: QIVLTQSPALMSASPGEKVTMTCSASSSVSYIYWYQQKPRSSPKPWIYLTSNLASGVPARFSGSGSGASYSLTISIMEAEDAATYYCQQWKSIPLTFGAGTKLELK
B2: ICR-8.1: anti-ICAM-R monoclonal antibody, IgG1, domain 1, ATCC HB 11232 (antibody, V domains shown)
VH: EIQLQQTGPELVKPGASVKISCKASGYSFTDCIILWVKQSHGKGLEWIGKINPYFGTTTYNLKFKGKATLTVDKSSSTAHMQLNSLTSEDSAVYYCARKEAYPDAMDYWGQGTSVTVSS
VL: DAVMTQTPLSLPVSLGDQASISCRSSQSLVHSNGDTYLHWYLQKPGQSPQLLIYKVSNRFSGVPDRFSGSGSGTDFTLKLSRVEAEDLGVYFCSQSTHVPYTFGGGTKLEIK

What was measured:
[1] = tested on: CD4+ CD45RO+ / CD45RA+ T cells and plastic adherent cells; test: SEA proliferation of memory or resting T cells with accessory cells; type: cell-based, human; conditions: immobilized antibody 3 hours
Description: Because both T cells and accessory cells express high levels of ICAM-R, the inhibition of cell-cell contact dependent T cell activation during the response to SEA by ICR-1.1 could be mediated by ICR-1.1 binding to T cells, accessory cells or both. Additionally, because ICAM-R and ICAM-1 differ markedly in their expression on nonactivated T cells, it is possible that anti-ICAM-1 and anti-ICAM-R may inhibit the SEA response by targeting T cell subsets in different states of activation. Because the role of ICAM-R may differ in naive and memory cells, the ability of anti-ICAM-R antibodies to inhibit SEA induced proliferation of CD4^+ CD45RO^+ (“memory”) cells, or CD4^+ CD45RA^+ (“resting”) cells was tested. […] nonadherent PBMC (10^7 cells/ml) were incubated for 1 hour at 4° C. with a cocktail of antibodies (1μg/ml each) containing anti-CD8, anti-CD19, anti-CD11b, anti-HLA-DR (Becton Dickinson) and either anti-CD45RO (Amac) (to obtain CD45RA^+ CD4^+ cells), or anti-CD45RA (Amac) (to obtain CD45RO^+ CD4^+ cells) in coating medium. The cell suspension was washed twice with coating medium to remove unbound antibody and incubated with goat anti-mouse IgG coated magnetic beads. Cells bound to magnetic beads were then removed from the suspension using a strong magnet. […] Two hundred thousand purified memory T cells, resting T cells or plastic adherent cells were incubated on immobilized ICR-1.1, anti-ICAM-1 antibody LB-2 or anti-HLA-I antibody p10.1 (10 μg/ml) (Gerald Nepom, Virginia Mason Research Center, Seattle, Wash.) for 3 hours. The antibody treated memory or resting T cells were removed to clean wells and admixed with 2×10^4 plastic adherent cells. Antibody treated accessory cells were admixed with either untreated memory T cells or untreated resting T-cells. Each reconstituted culture was then stimulated with SEA (10 pg/ml). […]

resting PBLs = test: T cell receptor induced tyrosine phosphorylation after pretreatment; type: cell-based, human
Description: Briefly, resting PBLs were isolated and treated with ICR-1.1 or isotype matched control antibody as described above in Section I. After the cells were removed from antibody, they were washed one time in PBS, resuspended in PBS to a concentration of 1×10^6 cells/ml, and either treated or not treated with antisera to the T cell receptor (G19-4) for 2 minutes at 37° C. The cells were then spun down and lysed in boiling 2×SDS-sample buffer, boiled a further 5 minutes and resolved on 10% SDS-PAGE. Proteins were transferred to nitrocellulose and blotted with the 4G10 anti-phosphotyrosine antibody as described. […] This is consistent with the result that CD69 upregulation in these cells is also normal (Section L above), since CD69 expression requires PLC-gamma stimulated PKC activity and PLC-gamma activation requires tyrosine phosphorylation.

ICAM-R = test: Epitope mapping by domain substitution/deletion (summary); type: binding, human
Description: Fusion 81 was screened by ELISA on COS cells transiently transfected with either a domain 1 deleted ICAM-R construct [Example 15.C.1] or with an ICAM-2 construct. The transfected cells were paraformaldehyde fixed on 96-well plates, and the remainder of the assay was performed as previously described, except no Tween 20 was used. The wells that were positive for domain 1 deleted ICAM-R but negative for ICAM-2, were tested on Cos cells transiently transfected with domain 1 deleted ICAM-R or domain 3 deleted ICAM-R by ELISA.
For the anti-ICAM-R monoclonal antibody binding assay, COS cells transfected with constructs encoding the ICAM-R chimeric proteins or control constructs were removed from the plates by EDTA treatment and aliquoted at 2.5×10^5 cells per well in a 96-well round bottom plate. Cells were washed 3 times with ice cold washing buffer (PBS containing 1% BSA and 0.05% sodium azide). […] The samples were analyzed on a Becton-Dickinson FACScan instrument. […]
Table 11 below is a summary of certain characteristics of ICAM-R specific monoclonal antibodies of the invention which have been specifically described in the foregoing examples. In Table 11, the abbreviation “NC” stands for “not conclusive” and the abbreviation “ND” stands for “not determined.” The antibodies marked with an asterisk in Table 11 enhanced activation at low concentrations.

[2] = tested on: CD4+ T cells with allogeneic epidermal cells; test: Langerhans cell alloantigen presentation to CD4+ T cells; type: cell-based, human; conditions: 50 μg antibody
Description: Blocking experiments were performed to determine whether the observed ICAM-R expression on Lcs was functionally important in antigen presentation. CD4^+ T cells were prepared from peripheral blood and 10^5 CD4^+ T cells were combined with 4×10^4 epidermal cells harvested from keratome biopsies of normal skin of an individual allogenic to the T cell donor. Proliferation was measured by ^3H thymidine uptake. Alloantigen presentation was unaffected by addition of 50 μg IgG1 isotype control. […] Inhibition was 73% of that produced by addition of anti-LFA-1 (anti-CD11a) antibody.

| Molecule | CD45RA+ cell proliferation, pretreatment of adherent cells [1] | SEA response, pretreatment of CD45RA+ T cells (FIG. 14) [1] | SEA proliferation, pretreatment of T cells or accessory cells (FIG. 13) ([1]; versus p10.1 control) | tyrosine phosphorylation in response to G19-4 after pretreatment (resting PBLs) | Reactive Domain (ICAM-R) | inhibition relative to that produced by anti-LFA-1 (anti-CD11a) antibody [2] | reduction in Lcs alloantigen-driven proliferative response of T cells [2] |
| --- | --- | --- | --- | --- | --- | --- | --- |
| B1 | modest inhibition of CD45RA^+ cell proliferation | did not affect SEA responses | blocked proliferative responses to SEA | there was an induction of tyrosine phosphorylation in response to G19-4 treatment | 1 |  |  |
| B2 |  |  |  |  |  | 73% | 47% |
